The data set concerns the molecule itself. Nature of the data set: crystal structure.

As usually defined, the stoichiometry N is a count of units in the complex or per binding partner.

B1: NM23-H2 R88A mutant (enzyme, human)
chain: ANLERTFIAIKPDGVQRGLVGEIIKRFEQKGFRLVAMKFLRASEEHLKQHYIDLKDRPFFPGLVKYMNSGPVVAMVWEGLNVVKTGAVMLGETNPADSKPGTIRGDFCIQVGRNIIHGSDSVKSAEKEISLWFKPEELVDYKSCAHDWVYE
Take B1: the “stoichiometry N” value turned out to be 6.
